In article PMC4333417 (Nucleic Acids Research, 2015):
Substitutions are numbered along the chain they refer to.

T1: Tbis1 (Thermobispora bispora DSM 43833, UniProt D6YAC6 2-309)
T1 sequence: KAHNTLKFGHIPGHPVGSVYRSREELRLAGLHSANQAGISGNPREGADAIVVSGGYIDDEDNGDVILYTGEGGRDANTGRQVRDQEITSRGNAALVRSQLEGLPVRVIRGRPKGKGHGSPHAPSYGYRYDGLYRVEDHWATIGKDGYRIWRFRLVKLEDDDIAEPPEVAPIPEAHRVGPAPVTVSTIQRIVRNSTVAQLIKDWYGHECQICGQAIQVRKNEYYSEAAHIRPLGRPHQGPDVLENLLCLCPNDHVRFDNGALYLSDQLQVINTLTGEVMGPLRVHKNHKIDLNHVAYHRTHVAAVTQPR

T2: Sco5333 (Streptomyces coelicolor, UniProt Q9ADD4 1-301)
T2 sequence: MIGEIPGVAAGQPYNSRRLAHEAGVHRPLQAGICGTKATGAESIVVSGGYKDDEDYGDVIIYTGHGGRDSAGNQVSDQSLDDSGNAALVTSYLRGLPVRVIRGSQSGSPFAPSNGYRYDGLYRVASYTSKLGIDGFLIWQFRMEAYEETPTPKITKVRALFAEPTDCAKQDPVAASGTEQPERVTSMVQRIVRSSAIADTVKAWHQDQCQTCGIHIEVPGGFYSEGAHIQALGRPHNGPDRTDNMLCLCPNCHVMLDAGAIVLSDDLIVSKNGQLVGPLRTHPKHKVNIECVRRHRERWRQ

B1: 56nt top methylated (56nt-1/4) (dsDNA)
DNA 1: CGGCGTTTCCGGGTTCCATAGGCTCCGCTCCGGCCTCTGATGACCAGGGCATCACA
DNA 2: TGTGATGCCCTGGTCATCAGAGGCCGGAGCGGAGCCTATGGAACCCGGAAACGCCG
modifications: 5mC at strand 1 pos 31
B2: 56nt non-methylated (56nt-2/4) (dsDNA)
DNA 1: B1 DNA 1
DNA 2: B1 DNA 2
B3: 56nt bottom methylated (56nt-2/3) (dsDNA)
DNA 1: B1 DNA 1
DNA 2: B1 DNA 2
modifications: 5mC at strand 2 pos 25 (Table S3; methods print 24)
B4: 55ntDcm2 fully methylated (55nt-5/7) (dsDNA)
DNA 1: ACTATAAAGATACCAGGCGTTTCCCCCTGGAAGCTCCCTCGTGCGCTCTCCTGTT
DNA 2: AACAGGAGAGCGCACGAGGGAGCTTCCAGGGGGAAACGCCTGGTATCTTTATAGT
modifications: 5mC at strand 1 pos 27 and strand 2 pos 27
B5: 55ntDcm2 bottom methylated (55nt-6/7) (dsDNA)
DNA 1: B4 DNA 1
DNA 2: B4 DNA 2
modifications: 5mC at strand 2 pos 27
B6: 55ntDcm2 top methylated (55nt-5/8) (dsDNA)
DNA 1: B4 DNA 1
DNA 2: B4 DNA 2
modifications: 5mC at strand 1 pos 27
B7: 55ntDcm2 non-methylated (55nt-6/8) (dsDNA)
DNA 1: B4 DNA 1
DNA 2: B4 DNA 2
B8: 55ntDcm1 non-methylated (55nt-2/4) (dsDNA)
DNA 1: GAAACCCGACAGGACTATAAAGATACCAGGCGTTTCCCCCTGGAAGCTCCCTCGT
DNA 2: ACGAGGGAGCTTCCAGGGGGAAACGCCTGGTATCTTTATAGTCCTGTCGGGTTTC
B9: 55ntDcm1 CmCTGG full (55nt-21/23) (dsDNA)
DNA 1: B8 DNA 1 with A28T
DNA 2: B8 DNA 2 with T28A
modifications: 5mC at strand 1 pos 27 and strand 2 pos 27
B10: 55ntDcm1 CmCGGG bottom (55nt-30/31) (dsDNA)
DNA 1: B8 DNA 1 with A28G
DNA 2: B8 DNA 2 with T28C
modifications: 5mC at strand 2 pos 27
B11: 55ntDcm1 GmCAGG bottom (55nt-10/11) (dsDNA)
DNA 1: B8 DNA 1 with C26G
DNA 2: B8 DNA 2 with G30C
modifications: 5mC at strand 2 pos 27
B12: 55ntDcm1 CmCTGG bottom (55nt-22/23) (dsDNA)
DNA 1: B8 DNA 1 with A28T
DNA 2: B8 DNA 2 with T28A
modifications: 5mC at strand 2 pos 27
B13: 55ntDcm1 GmCAGG full (55nt-9/11) (dsDNA)
DNA 1: B8 DNA 1 with C26G
DNA 2: B8 DNA 2 with G30C
modifications: 5mC at strand 1 pos 27 and strand 2 pos 27
B14: 55ntDcm1 AmCAGG bottom (55nt-14/15) (dsDNA)
DNA 1: B8 DNA 1 with C26A
DNA 2: B8 DNA 2 with G30T
modifications: 5mC at strand 2 pos 27
B15: 55ntDcm1 top methylated (55nt-1/4) (dsDNA)
DNA 1: B8 DNA 1
DNA 2: B8 DNA 2
modifications: 5mC at strand 1 pos 27
B16: 55ntDcm1 TmCAGG top (55nt-17/20) (dsDNA)
DNA 1: B8 DNA 1 with C26T
DNA 2: B8 DNA 2 with G30A
modifications: 5mC at strand 1 pos 27
B17: 55ntDcm1 CmCGGG top (55nt-29/32) (dsDNA)
DNA 1: B8 DNA 1 with A28G
DNA 2: B8 DNA 2 with T28C
modifications: 5mC at strand 1 pos 27
B18: 55ntDcm1 TmCAGG bottom (55nt-18/19) (dsDNA)
DNA 1: B8 DNA 1 with C26T
DNA 2: B8 DNA 2 with G30A
modifications: 5mC at strand 2 pos 27
B19: 55ntDcm1 CmCCGG bottom (55nt-26/27) (dsDNA)
DNA 1: B8 DNA 1 with A28C
DNA 2: B8 DNA 2 with T28G
modifications: 5mC at strand 2 pos 27
B20: 55ntDcm1 AmCAGG full (55nt-13/15) (dsDNA)
DNA 1: B8 DNA 1 with C26A
DNA 2: B8 DNA 2 with G30T
modifications: 5mC at strand 1 pos 27 and strand 2 pos 27
B21: 55ntDcm1 AmCAGG top (55nt-13/16) (dsDNA)
DNA 1: B8 DNA 1 with C26A
DNA 2: B8 DNA 2 with G30T
modifications: 5mC at strand 1 pos 27
B22: 55ntDcm1 CmCGGG full (55nt-29/31) (dsDNA)
DNA 1: B8 DNA 1 with A28G
DNA 2: B8 DNA 2 with T28C
modifications: 5mC at strand 1 pos 27 and strand 2 pos 27
B23: 55ntDcm1 fully methylated (55nt-1/3) (dsDNA)
DNA 1: B8 DNA 1
DNA 2: B8 DNA 2
modifications: 5mC at strand 1 pos 27 and strand 2 pos 27
B24: 55ntDcm1 CmCTGG top (55nt-21/24) (dsDNA)
DNA 1: B8 DNA 1 with A28T
DNA 2: B8 DNA 2 with T28A
modifications: 5mC at strand 1 pos 27
B25: 55ntDcm1 CmCCGG full (55nt-25/27) (dsDNA)
DNA 1: B8 DNA 1 with A28C
DNA 2: B8 DNA 2 with T28G
modifications: 5mC at strand 1 pos 27 and strand 2 pos 27
B26: 55ntDcm1 bottom methylated (55nt-2/3) (dsDNA)
DNA 1: B8 DNA 1
DNA 2: B8 DNA 2
modifications: 5mC at strand 2 pos 27
B27: 55ntDcm1 TmCAGG full (55nt-17/19) (dsDNA)
DNA 1: B8 DNA 1 with C26T
DNA 2: B8 DNA 2 with G30A
modifications: 5mC at strand 1 pos 27 and strand 2 pos 27
B28: 55ntDcm1 CmCCGG top (55nt-25/28) (dsDNA)
DNA 1: B8 DNA 1 with A28C
DNA 2: B8 DNA 2 with T28G
modifications: 5mC at strand 1 pos 27
B29: 55ntDcm1 GmCAGG top (55nt-9/12) (dsDNA)
DNA 1: B8 DNA 1 with C26G
DNA 2: B8 DNA 2 with G30C
modifications: 5mC at strand 1 pos 27
B30: Sco5333 (enzyme, Streptomyces coelicolor, UniProt Q9ADD4 1-301, looked up)
chain: T2 sequence

molecular target: T1, Tbis1; experiment: EMSA

| Binder | binding result |
| --- | --- |
| B1 | binds |
| B2 | no binding |
| B3 | binds |

molecular target: T2, Sco5333; experiment: EMSA

| Binder | binding result |
| --- | --- |
| B4 | binds |
| B5 | binds |
| B6 | binds |
| B7 | no binding |
| B8 | no binding |
| B9 | binds |
| B10 | binds |
| B11 | binds |
| B12 | binds |
| B13 | binds |
| B14 | binds |
| B15 | binds |
| B16 | binds |
| B17 | binds |
| B18 | binds |
| B19 | binds |
| B20 | binds |
| B21 | binds |
| B22 | binds |
| B23 | binds |
| B24 | binds |
| B25 | binds |
| B26 | binds |
| B27 | binds |
| B28 | binds |
| B29 | binds |

Molecular target: the molecule itself
Experiment: SEC

| Binder | stoichiometry N |
| --- | --- |
| B30 | 2 |
